According to patent US20250129166A1 (Five Prime, published 2025):
Substitutions are numbered along the chain they refer to. Names may count otherwise. Values belong to the binder of their own block, whether it stands above or below them.

Legend:
[1] = biological target: T1, human VISTA on cells (endogenous on human monocytes and AML3 cells; ectopic full-length on 293T cells) (human, UniProt Q9H7M9 33-311); test: cell-based or functional assay
T1 sequence (looked up): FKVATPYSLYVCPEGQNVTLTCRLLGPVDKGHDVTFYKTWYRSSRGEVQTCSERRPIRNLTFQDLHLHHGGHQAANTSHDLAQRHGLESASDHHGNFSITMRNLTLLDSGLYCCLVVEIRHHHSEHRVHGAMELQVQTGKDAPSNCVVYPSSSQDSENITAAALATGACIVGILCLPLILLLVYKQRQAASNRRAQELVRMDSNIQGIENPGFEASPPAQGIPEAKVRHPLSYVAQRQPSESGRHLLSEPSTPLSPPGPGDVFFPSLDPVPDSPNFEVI

[2] = biological target: T2, monovalent hVISTA-ECD (amino acids 32-193 of SEQ ID NO: 1 with a 7xHis tail) (human, UniProt Q9H7M9 33-193); test: SPR, mAb on Protein A, 37C, pH 7.4
T2 construct: also called huVISTA-His; human VISTA-ECD
Method: (§1) Binding of several preparations of each of the '029 progeny clones and of the parent '029 antibodies, formatted as IgG1.3 antibodies, to human VISTA at pH 6.0 and 7.4 was measured by Surface plasmon resonance (SPR). SPR analysis was performed to measure koff and KD binding affinity measurements for VISTA Abs at acidic and neutral pHs using a Biacore® T100 instrument (GE Healthcare). Protein A (ThermoFisher Scientific catalog #21181) was diluted to 20 μg/ml in 10 mM sodium acetate pH 4.5 and immobilized onto flow cells of a CM5 biosensor following the manufacturer's amine coupling protocol (GE Healthcare), targeting 2,000 RU immobilization density of Protein A per flow cell. SPR experiments were conducted at 37° C. using PBST (137 mM sodium chloride, 2.7 mM potassium chloride, 10 mM phosphate buffer, 0.05% Tween® 20) running buffer at pH 7.4 and 6.0. Antibodies were diluted to 25 nM in PBST pH 7.4, and were captured across active biosensor flow cells at 5 ul/min for 60 seconds. A concentration series of 50-5 nM monovalent hVISTA-ECD (SEQ ID NO: 325) was prepared in pH 7.4 and 6.0 running buffers, and was injected over the captured antibodies at 40 ul/min to measure association and dissociation. Two 15 second injections of 10 mM glycine pH 1.5 were used to regenerate the Protein A capture surface between assay cycles. Rate constants ka (kₒₙ) and kd (koff) were derived from reference flow cell and 0 nM blank-subtracted sensorgrams, and were fit to a 1:1 binding model in Biacore® T200 Evaluation Software v.2.0. The affinity constant, KD was calculated as the ratio of rate constants koff/kₒₙ for each VISTA antibody.

[3] = biological target: T2, monovalent hVISTA-ECD (amino acids …); test: SPR, mAb captured on Protein A, hVISTA-ECD analyte, 37 C, pH 6.0
Method: (§2) Binding kinetics were measured using a Biacore® T100 instrument (GE Healthcare). Protein A (ThermoFisher Scientific catalog #21181) was diluted to 20 μg/ml in 10 mM sodium acetate pH 4.5 and immobilized onto flow cells of a CM5 biosensor following the manufacturer's amine coupling protocol (GE Healthcare), targeting 2,000 RU immobilization density of Protein A per flow cell. The assay was conducted at 37° C. using PBST (137 mM sodium chloride, 2.7 mM potassium chloride, 10 mM phosphate buffer, 0.05% Tween 20) running buffer at pH 7.4, 6.7 and 6.0. Antibodies were diluted to 25 nM in PBST pH 7.4, and were captured across active biosensor flow cells at 5 ul/min for 40 seconds. A concentration series of 100-10 nM monovalent hVISTA-ECD (SEQ ID NO: 325) was prepared in pH 7.4, 6.7 and 6.0 running buffers, and was injected over the captured antibodies at 40 ul/min to measure association and dissociation. Two 15 second injections of 10 mM glycine pH 1.5 were used to regenerate the Protein A capture surface between assay cycles. Rate constants ka (kon) and kd (koff) were derived from reference flow cell and 0 nM blank-subtracted sensorgrams, and were fit to a 1:1 binding model in Biacore® T200 Evaluation Software v.2.0.
(§3) The affinity constant, KD was calculated as the ratio of rate constants koff/kₒₙ for each VISTA antibody. The % Rmax was calculated to compare how pH affects an antibody's binding capacity for VISTA, and represents the measured maximal VISTA binding response relative to the expected maximal VISTA binding response. The % Rmax is defined as the ratio of the reference-subtracted ‘binding’ report point response at the end of the 100 nM VISTA injection for each antibody (Rmax) relative to the expected VISTA binding response (Rexp). Rexp is calculated as Rexp=[(VISTA-ECD molecular weight/mAb molecular weight)×(mAb ‘capture’ report point response (RUs)]×2 binding sites per mAb.

[4] = biological target: T2, monovalent hVISTA-ECD (amino acids …); test: SPR, mAb captured on Protein A, hVISTA-ECD analyte, 37 C, pH 6.7
Method: as §2, §3

[5] = biological target: T2, monovalent hVISTA-ECD (amino acids …); test: SPR, mAb captured on Protein A, hVISTA-ECD analyte, 37 C, pH 6.0; remark: listed apart in the source
Method: as §2, §3

[6] = biological target: T3, hVISTA multimer: monobiotinylated hVISTA ECD (Phe 33-Ala 194, Accession #AAH20568, polyhistidine) loaded on … (human, UniProt Q9H7M9 33-194, limits assumed, monobiotinylated; loaded at a 28:1 molar ratio onto PE-conjugated streptavidin dextramers); test: blocking of VISTA multimer binding to activated human CD4+ T cells, flow cytometry, pH 6.0
T3 construct: also called hVISTA-loaded dextramers; recombinant VISTA multimer
T3 sequence (looked up): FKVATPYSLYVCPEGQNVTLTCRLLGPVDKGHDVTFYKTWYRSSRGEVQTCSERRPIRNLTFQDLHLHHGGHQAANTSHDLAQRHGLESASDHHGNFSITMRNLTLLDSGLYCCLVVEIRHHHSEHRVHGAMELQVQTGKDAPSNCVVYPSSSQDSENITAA
Method: As a control, activated CD4+ T cells were stained with PE-conjugated streptavidin dextramers that were not loaded with hVISTA. The stained cells were washed with HBSS+MES and acquired on a flow cytometer. Data were analyzed using FlowJo™ software (BD Biosciences). […] Left, from darker gray to lighter, the filled histograms depict binding at pH 7.0, 6.5, 6.4, 6.3, 6.1, and 6.0. Some histograms are labeled with their corresponding pH. Non-VISTA control multimer binding at pH 6.0 is shown as the unfilled histogram. Right, graphed PE mean fluorescence intensities (MFI) of CD4+ T cells stained with hVISTA-loaded dextramers (circles) or with non-loaded dextramers (triangles) at various pH.
This blocking assay was performed as described in Example 4.

[7] = biological target: T2, monovalent hVISTA-ECD (amino acids …); test: SPR, mAb on Protein A, 37C, pH 6.0
Method: as §1

[8] = biological target: T2, monovalent hVISTA-ECD (amino acids …); test: SPR, mAb captured on Protein A, hVISTA-ECD analyte, 37 C, pH 6.7; remark: listed apart in the source
Method: as §2, §3

[9] = biological target: T2, monovalent hVISTA-ECD (amino acids …); test: SPR, mAb captured on Protein A, hVISTA-ECD analyte, 37 C, pH 7.4
Method: as §2, §3

[10] = biological target: T2, monovalent hVISTA-ECD (amino acids …); test: SPR, mAb on Protein A, 37C, pH 6.0; pH 6.0
Method: as §1

B1: VISTA.5 (mAb1) (antibody, V domains shown)
VH: AVQLQESGPGLVRPSQSLSLTCTVTDYSITSDYAWNWIRQFPGSKLEWLGFIGYSGNTNYNPSLESRISITRHTSKNQFFLHLNSMTTEDTATYYCARSLYGGSHWYFDVWGAGTTVTVSS
VL: DIVLTQSPASLAVSLGQRATISCRGSESVEYYGTILMQWYQQKPGQPPKLLIYGASNVESGVPARFSGSGSGTDFSLNIHPVEEDDIAMYFCQQSRKVPWTFGGGTKLEIK
EC50 of AML3 cell viability (Cell Titer Glo), endolysosome-dependent secondary antibody drug conjugate killing assay [1]: 0.485 µg/mL

B2: P1-061029.IgG1.3 (antibody)
heavy: EVQLVESGGGLVQPGKSLRLSCAASGFTLDDYAMHWVRQAPGKGLEWVSGINWNSANIGYADSVKGRFTISRDNAKNSLYLQMNSLRTEDTALYYCAKVPGYSGGWIDAFDVWGQGTMVTVSSASTKGPSVFPLAPSSKSTSGGTAALGCLVKDYFPEPVTVSWNSGALTSGVHTFPAVLQSSGLYSLSSVVTVPSSSLGTQTYICNVNHKPSNTKVDKRVEPKSCDKTHTCPPCPAPEAEGAPSVFLFPPKPKDTLMISRTPEVTCVVVDVSHEDPEVKFNWYVDGVEVHNAKTKPREEQYNSTYRVVSVLTVLHQDWLNGKEYKCKVSNKALPAPIEKTISKAKGQPREPQVYTLPPSREEMTKNQVSLTCLVKGFYPSDIAVEWESNGQPENNYKTTPPVLDSDGSFFLYSKLTVDKSRWQQGNVFSCSVMHEALHNHYTQKSLSLSPG
light: not shown
notes: IgG1.3 = effectorless IgG1 (L234A, L235E, G237A); also called P1-061029 (parent); P1-061029 hIgG1.3f
Kd [2]: 36 nM
kon [2]: 180000 M⁻¹ s⁻¹
koff [3]: 0.0082 s⁻¹
koff [4]: 0.0044 s⁻¹
koff [5]: 0.0082 s⁻¹
IC50 (read off the curve) [6]: ~0.05 µg/mL
Kd [7]: 7.4 nM
kon [7]: 780000 M⁻¹ s⁻¹
koff [8]: 0.0044 s⁻¹

B3: P1-068767_E30D_D102V (antibody, human IgG1, kappa, V domains shown)
VH: EVQLVESGGGLVQPGKSLRLSCAASGFTLDDYAMHWVRQAPGKGLEWVSGIDWNSENIGYADSVKGRFTISRDNAKNSLYLQMNSLRTEDTALYYCAKVPGYSGGWIDAEDVWGQGTMVTVSS
VL: not shown
notes: also called P1-070926
koff [3]: 0.003 s⁻¹
koff [9]: 0.011 s⁻¹
koff [8]: 0.0035 s⁻¹

B4: P1-068767_E30D_E100fF (antibody, human IgG1, kappa, V domains shown)
VH: B3 VH with E110F, V112D
VL: not shown
notes: also called P1-070924
koff [8]: 0.027 s⁻¹

B8: P1-068761.IgG1.3 (antibody)
heavy: B2 heavy with D30E, Y32E, A56E, N57E, G104H, F110E
light: not shown
notes: IgG1.3; also called P1-068761 hIgG1.3f; P1-0687617
koff [4]: 0.0066 s⁻¹
IC50 (read off the curve) [6]: ~0.03 µg/mL
Kd [7]: 5.5 nM
kon [7]: 280000 M⁻¹ s⁻¹

B10: P1-068767_D52N_D102V (antibody, human IgG1, kappa, V domains shown)
VH: B3 VH with D30E, D52N
VL: not shown
notes: also called P1-070930
koff [3]: 0.0012 s⁻¹
koff [9]: 0.0067 s⁻¹
koff [8]: 0.0018 s⁻¹

B13: P1-068767_D102V (antibody, human IgG1, kappa, V domains shown)
VH: B3 VH with D30E
VL: not shown
notes: also called P1-070912
koff [3]: 0.002 s⁻¹
koff [9]: 0.0092 s⁻¹
koff [8]: 0.0028 s⁻¹

Further lines, results first:

koff [3]: 0.002 s⁻¹
koff [9]: 0.01 s⁻¹
koff [8]: 0.0031 s⁻¹
B5: P1-068767_E55A_D102V (antibody, human IgG1, kappa, V domains shown)
VH: B3 VH with D30E, E56A
VL: not shown
notes: also called P1-070932

koff [3]: 0.0015 s⁻¹
Kd [10]: 7.4 nM
koff [10]: 0.0017 s⁻¹
kon [10]: 230000 M⁻¹ s⁻¹
koff [8]: 0.0055 s⁻¹
B6: P1-070916 (P1-068767_D52N_E55A) IgG1.3 (antibody, V domains shown)
VH: B3 VH with D30E, D52N, E56A, V112D
VL: not shown
notes: IgG1.3

koff [3]: 0.0023 s⁻¹
Kd [10]: 11 nM
koff [10]: 0.0025 s⁻¹
kon [10]: 220000 M⁻¹ s⁻¹
koff [8]: 0.0085 s⁻¹
B7: P1-070908 (P1-068767_E55A) IgG1.3 (antibody, V domains shown)
VH: B3 VH with D30E, E56A, V112D
VL: not shown
notes: IgG1.3

koff [3]: 0.0082 s⁻¹
koff [9]: 0.0083 s⁻¹
koff [8]: 0.0047 s⁻¹
B9: P1-068767_E100fF_D102V (antibody, human IgG1, kappa, V domains shown)
VH: B3 VH with D30E, E110F
VL: not shown
notes: also called P1-070920

koff [3]: 0.0015 s⁻¹
Kd [10]: 6.7 nM
koff [10]: 0.0016 s⁻¹
kon [10]: 240000 M⁻¹ s⁻¹
koff [8]: 0.0067 s⁻¹
B11: P1-070906 (P1-068767_D52N) IgG1.3 (antibody, V domains shown)
VH: B3 VH with D30E, D52N, V112D
VL: not shown
notes: IgG1.3

koff [8]: 0.026 s⁻¹
B12: P1-068767_E100fF (antibody, human IgG1, kappa, V domains shown)
VH: B3 VH with D30E, E110F, V112D
VL: not shown
notes: also called P1-070910
